Measurements taken from patent US20160257757A1.

Experiments:
[1] = target: full-length mouse GCGR (mouse) (UniProt Q61606); assay: cell-based or functional assay
[2] = target: full-length rat GCGR transiently expressed on HEK293 reporter cells (rat) (UniProt P30082); assay: cell-based or functional assay
Chain of full-length rat GCGR transiently expressed on HEK293 reporter cells (rat) (P30082 27-485 limits assumed): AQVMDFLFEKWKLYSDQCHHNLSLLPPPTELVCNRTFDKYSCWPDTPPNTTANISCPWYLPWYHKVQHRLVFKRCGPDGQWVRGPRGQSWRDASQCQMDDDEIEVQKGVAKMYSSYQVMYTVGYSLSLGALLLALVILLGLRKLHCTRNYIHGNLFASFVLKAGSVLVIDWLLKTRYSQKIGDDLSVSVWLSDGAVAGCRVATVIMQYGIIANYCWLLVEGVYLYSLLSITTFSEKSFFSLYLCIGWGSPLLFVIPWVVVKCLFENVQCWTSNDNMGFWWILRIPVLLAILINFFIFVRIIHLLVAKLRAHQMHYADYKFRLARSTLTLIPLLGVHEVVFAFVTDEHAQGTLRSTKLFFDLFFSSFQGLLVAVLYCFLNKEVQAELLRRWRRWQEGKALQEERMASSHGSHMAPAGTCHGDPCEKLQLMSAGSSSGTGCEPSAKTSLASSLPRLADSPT

Chain of full-length mouse GCGR (mouse) (Q61606 27-485 limits assumed): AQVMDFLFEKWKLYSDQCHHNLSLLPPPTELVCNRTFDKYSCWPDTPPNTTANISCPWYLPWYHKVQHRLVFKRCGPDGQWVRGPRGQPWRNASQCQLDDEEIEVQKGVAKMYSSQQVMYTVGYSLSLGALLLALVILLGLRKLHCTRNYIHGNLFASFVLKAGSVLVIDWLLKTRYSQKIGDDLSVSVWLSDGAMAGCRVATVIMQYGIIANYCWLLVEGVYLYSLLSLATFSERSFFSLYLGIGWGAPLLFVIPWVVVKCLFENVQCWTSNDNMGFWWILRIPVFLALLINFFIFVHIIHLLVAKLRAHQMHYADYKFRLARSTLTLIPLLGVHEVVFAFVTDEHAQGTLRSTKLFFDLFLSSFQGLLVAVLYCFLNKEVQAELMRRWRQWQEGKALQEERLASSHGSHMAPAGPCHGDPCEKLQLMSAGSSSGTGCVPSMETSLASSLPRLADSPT

- EC50 of luciferase (cAMP/CRE reporter) stimulation in HEK293/GCGR cells [1]: 0.083 nM
- EC50 of luciferase (cAMP/CRE reporter) stimulation in HEK293/GCGR cells [2]: 0.252 nM
Substance: glucagon (from UniProt P01275 53-81) (ligand)
